This note sets out measurements from paper PMC12350152 (Nature Structural & Molecular Biology, 2025).

In assay [1] the target is recombinant full-length Pfs48/45 (ELISA antigen) (Plasmodium falciparum, strain not …, UniProt Q8I6T1). In words: ELISA. Background: An ELISA detects its analyte on a solid surface through an enzyme-linked reagent.
Assay [2] concerns the target T1, Pfs48/45 fragment containing D3 (ELISA antigen) (Plasmodium falciparum, strain not …).
T1 chain: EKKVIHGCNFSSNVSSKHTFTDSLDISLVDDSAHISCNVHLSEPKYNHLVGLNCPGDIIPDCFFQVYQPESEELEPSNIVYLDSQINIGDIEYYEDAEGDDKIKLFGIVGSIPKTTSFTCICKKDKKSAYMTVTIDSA
Description: ELISA.

Assay [3] has as its target Pfs48/45 on live female Pf NF54 gametes (Plasmodium falciparum NF54 (3D7 is its …, UniProt Q8I6T1)). In words: flow cytometry on cells. In general terms: A flow cytometer gives signals particle by particle.
Assay [4] deals with Pfs48/45 D1D2 (domains 1 and 2, aa 27–294), native sequence (Plasmodium falciparum (isolate 3D7)., UniProt Q8I6T1). In words: BLI. On the technique in general: Biolayer interferometry detects binding as a change in optical thickness at a sensor tip.
Chain of Pfs48/45 D1D2 (domains 1 and 2, aa 27–294), native sequence (Q8I6T1 27-294): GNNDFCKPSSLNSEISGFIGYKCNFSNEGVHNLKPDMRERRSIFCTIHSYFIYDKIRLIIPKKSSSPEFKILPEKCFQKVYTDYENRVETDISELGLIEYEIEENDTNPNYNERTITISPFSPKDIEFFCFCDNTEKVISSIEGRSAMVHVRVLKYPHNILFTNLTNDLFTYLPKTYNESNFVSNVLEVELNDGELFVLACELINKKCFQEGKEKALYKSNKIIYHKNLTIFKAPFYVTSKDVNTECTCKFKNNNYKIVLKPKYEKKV

Chain of Pfs48/45 on live female Pf NF54 gametes (Plasmodium falciparum NF54 (Q8I6T1 28-426): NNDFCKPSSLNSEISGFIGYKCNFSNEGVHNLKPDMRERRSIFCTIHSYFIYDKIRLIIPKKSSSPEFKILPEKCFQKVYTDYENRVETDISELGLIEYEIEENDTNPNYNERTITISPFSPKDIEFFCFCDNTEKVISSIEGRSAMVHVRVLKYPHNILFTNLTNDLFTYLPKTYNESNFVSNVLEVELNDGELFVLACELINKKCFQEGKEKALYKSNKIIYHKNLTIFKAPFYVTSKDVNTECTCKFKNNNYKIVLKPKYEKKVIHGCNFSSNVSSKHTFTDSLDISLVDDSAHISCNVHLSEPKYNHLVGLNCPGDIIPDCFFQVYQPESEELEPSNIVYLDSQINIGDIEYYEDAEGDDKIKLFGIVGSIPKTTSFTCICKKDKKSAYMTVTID
Chain of recombinant full-length Pfs48/45 (ELISA antigen) (Q8I6T1 28-426): as above

B1: RUPA-44 mAb (IgG) (antibody, V domains shown)
VH: QLQLQESGPGLVKPSETLSLTCTVSGGSISRSPYYWGWIRQPPGKGLEWFGSIYNNGSTYYNPPLKSRLTISVDTSKNQFSLKLSSVTAADTAVYYCARHGGSTGMKVVVIAPPDYWGQGTLVTVSS
VL: DIQMTQSPATLSASVGDRVTITCRASQSISSWLAWYQQKPGEAPKLLIYKASSLQSGVPSRFSGSGSGTKFSLTISSLQPDDFATFYCQQYHSYPYTFGQGTKLEIK
With B1, the binding result in assay [1], in assay [2] and in assay [3] was “binds” in each case.

B2: 10D8 Fab (Fab, V domains shown)
VH: EVMLVESGGDLVKPGGSLKVSCAASGFTFSNYAMSWVRQTPEKRLEWVATISSGASYTHYPDSVKGRFTISRDNAKNTLYLQMSSLRSEDTAMYYCGRQVNRHDRALDAMDYWGQGTSVTVSP
VL: not shown
As for B2, in assay [4], the binding result is on record as “binds”.
